# In article PMC10511717:
# B1: recombinant mouse OMD (natural protein)
# chain: QYEAYRWDDDYDQEPNEDYDPEFQFHQNIEYGVPFYNNILGCAKECFCPTNFPTSMYCDNRKLKTIPIIPMHIQQLNLQFNDIEAVTANSFINATHLKEINLSHNKIKSQKIDYGVFAKLSNLQQLHLEHNNLEEFPFPLPKSLERLLLGYNEISILPTNAMDGLVNVTMLDLCYNHLSDSMLKEKTLSKMEKLMQLNLCNNRLESMPLGLPSSLMYLSLENNSISSIPDNYFDKLPKLHALRISHNKLEDIPYDIFNLSNLIELNVGHNKLKQAFYIPRNLEHLYLQNNEIESINVTMICPSPDPVHHHHLTYLRVDQNKLKEPISSYIFFCFPRIHSIYYGEQRSTNGETIQLKTQVFRSYQEEEEEDDHDSQDNTLEGQEVSDEHYNSHYYEMQEWQDTI
# Target: RANKL of the osteoclast differentiation medium (UniProt O35235)
# Sequence of UniProt O35235 (O35235 whole entry): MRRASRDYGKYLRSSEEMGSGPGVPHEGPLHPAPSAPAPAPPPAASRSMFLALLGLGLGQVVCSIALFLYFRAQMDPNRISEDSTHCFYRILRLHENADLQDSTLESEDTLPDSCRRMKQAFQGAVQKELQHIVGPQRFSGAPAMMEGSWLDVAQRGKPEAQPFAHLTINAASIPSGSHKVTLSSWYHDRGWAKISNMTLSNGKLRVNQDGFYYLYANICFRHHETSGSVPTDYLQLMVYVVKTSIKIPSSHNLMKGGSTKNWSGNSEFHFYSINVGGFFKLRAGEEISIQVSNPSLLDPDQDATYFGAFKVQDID
binder,measurement,value
B1,osteoclast number (TRAP staining after 4 days) in primary murine osteoclast culture differentiated with M-CSF and RANKL; OMD at 10 and 40 ng/mL preincubated with RANKL and M-CSF (% reduction of osteoclast number),50
